Test results reported in US8394929B2, “Nogo receptor-mediated blockade of axonal growth” (Yale University, priority 2000, dated 2013).
Where two headings read alike, the source gives them in different places.

Key:
[1] = system: CNS myelin induced neurite outgrowth inhibition; assay: Blockade of CNS myelin induced neurite outgrowth inhibition in chick DRG neurons; format: cell-based
Protocol: To determine the antagonistic activity of Peptide 140 against CNS myelin, the above synthetic peptide was added approximately 10 min before application of CNS myelin. 30 min later, cultures were fixed and growth cone collapse was assessed following staining with rhodamine-phalloidin. For neurite outgrowth assays, plastic chamber slide were coated with 100 μg ml^−1 poly-L-lysine, washed, and dried. 3 μl drops of PBS containing CNS myelin were spotted and dried. Slides were then rinsed and coated with 10 μg ml fs24^−1 laminin before addition of dissociated E12 chick DRGs. Peptide 140, or the scrambled version of Peptide 140, was added at the time of cell plating. Cultures were grown for 5-7 h after which neurite outgrowth was assessed.
Although the role of the GPI anchor may be to regulate NgR cellular compartmentalization, another possible role for the GPI linkage is to provide a NgR cleavage site. Cleaving NgR could serve to affect hNogo-A (1055-1120) signaling by rendering a neuron insensitive to hNogo-A (1055-1120) and by releasing soluble NgR that could then act on adjacent cells to modulate hNogo-A (1055-1120) signaling. To determine if soluble mNgR modulates hNogo-A (1055-1120)-dependent inhibition, a soluble mNgR was generated by inserting a truncated cDNA encoding mNgR residues 1-348 in frame with a myc-His carboxy tag into pcDNA3.1. The resulting plasmid expressing mNgREcto was transfected into HEK293T cells, and conditioned media containing mNgREcto protein was collected. To test the effect of mNgREcto on Nogo signaling, E13 dissociated DRGs were plated in the presence of hNogo-A (1055-1120) or myelin. The inhibitors were presented in either soluble or substrate-bound forms. For neurite outgrowth assays on hNogo-A (1055-1120) or myelin substrates, Permanox chamber slides were coated with 100μ, fs24 g ml^−1 poly-L-Lysine, washed, and then 3-μl drops of phosphate-buffered saline (hereinafter “PBS”) containing 0, 10, 50, or 150 ng of GST-hNogo-A (1055-1120) or myelin were spotted and dried. GST-hNogo-A (1055-1120) and myelin were prepared as previously described (GrandPre et al., supra; Fournier et al., J. Cell Biol. 149:411-421, 2000). After three PBS washes, slides were coated with 10 μg ml^−1 laminin. Laminin was then aspirated and dissociated E13 chick DRG neurons were added. After 6-8 hr of outgrowth, cultures were fixed and neurite outgrowth lengths were assessed. For blockade experiments with NgREcto, spots were incubated with HEK293T cell conditioned media or NgREcto-transfected-HEK293T cell conditioned media following for 1 hr following the laminin coating step and before the addition of dissociated neurons. […] Thus, soluble fragments of NgR might serve physiologically or pharmacologically to reduce GST-hNogo-A (1055-1120) inhibition of axonal regeneration.

[2] = system: chick E12 dorsal root ganglion growth cones; assay: Growth cone collapse assay in chick dorsal root ganglion explants; format: cell-based
Protocol: For all experiments involving cell culture, the following methods were employed. The culture of embryonic chick E10 and E12 dorsal root ganglion explants and dissociated neurons utilized methods described for E7 dorsal root ganglion cultures (Takahashi et al., (1998) Nature Neurosci. 1, 487-493; Takahashi et al., (1999) Cell 99, 59-69; Goshima et al., (1995) Nature 376, 509-514; Jin & Strittmatter, (1997) J. Neurosci. […]). NGF-differentiated PC12 cells were cultured as described (Strittmatter et al., (1994) J. Neurosci. 14, 2327-2338). Embryonic spinal cord explants (rat E10 or chick E5) were cultured for 7-14 days in the presence of PDGF-AA to induce differentiation of some cells into mature oligodendrocytes (Vartanian et al., (1999) Proc. Natl. Acad. Sci. USA 96, 731-735). The procedure for growth cone collapse assays is identical to that for analysis of Sema3A-induced growth cone collapse (Takahashi et al., (1998) Nature Neurosci. 1, 487-493; Takahashi et al., (1999) Cell 99, 59-69; Goshima et al., (1995) Nature 376, 509-514; Jin & Strittmatter, (1997) J. Neurosci. 17, 6256-6263). The method for analysis of total neurite outgrowth has also been described (Goshima et al., (1995) Nature 376, 509-514; Jin & Strittmatter, (1997) J. Neurosci. 17, 6256-6263; Strittmatter et al., (1994) J. Neurosci. 14, 2327-2338). In outgrowth assays, proteins and peptides were added one hour after plating to minimize any effect on the total number of adherent cells. To test the effect of substrate-bound GST or GST-Nogo, the protein solutions were dried on poly-L-lysine coated glass, washed and then coated with laminin. For E12 cultures, the neuronal identity of cells was verified by staining with anti-neurofilament antibodies (2H3, Develomental Studies Hybridoma Bank) and neurites were traced by observation of rhodamine-phalloidin staining of F-actin in processes.
The expression of recombinant Nogo in HEK293T cells allows a rigorous test of whether this protein has axon outgrowth inhibiting effects. Washed membrane fractions from vector- or hNogo-A-Myc-transfected HEK293T cells were added to chick E12 dorsal root ganglion explant cultures. Growth cone morphology was assessed after a thirty minute incubation at 37° C. by fixation and rhodamine-phalloidin staining.
Briefly, for growth cone collapse, DRG explants were plated on plastic chamber slides precoated with 100 μg ml^−1 poly-L-lysine and 10 μg ml^−1 laminin. Cultures were grown 14-16 h prior to treatment.

Molecule: Pep2-41: 2-41 fragment of the 66 amino acid region of Nogo, acetylated and amidated at the termini (Ac-RIYKGVIQAIQKSDEGHPFRAYLESEVAISEELVQKYSNS-NH2)
- blockade of CNS myelin induced neurite outgrowth inhibition (in words) [1]: can reverse the inhibition of neurite outgrowth
- blockade of CNS myelin induced neurite outgrowth inhibition (in words) ([1]; listed as 2-41 fragment): blocks

Molecule: Peptide 140: synthetic peptide of amino acids #1055-1094 of the human NogoA protein, acetylated and amidated at the termini (Ac-RIYKGVIQAIQKSDEGHPFRAYLESEVAISEELVQKYSNS-NH2; UniProt Q9NQC3 1055-1094, looked up, fragment)
- growth cone collapse activity (in words) ([2]; added to DRG explant cultures, thirty minutes): does not induce significant growth cone collapse
- blockade of CNS myelin induced neurite outgrowth inhibition (in words) [1]: partial neutralization
- concentration at which maximal activity is obtained ([1]; bound CNS myelin): approximately 250 nM
- neurite outgrowth on a 20 ng spot of myelin (as compared with control outgrowth) ([1]; following treatment with Peptide 140, E12 chick DRG): 65%

B1: GST-Nogo: GST fusion protein of the 66 amino acid lumenal-extracellular fragment of Nogo-A, expressed in E. coli (protein)
chain: RIYKGVIQAIQKSDEGHPFRAYLESEVAISEELVQKYSNSALGHVNCTIKELRRLFLVDDLVDSLK
modifications: also: GST fusion protein
notes: GST fusion protein of the 66 amino acid lumenal-extracellular fragment of Nogo-A, expressed in E. coli
- relative potency in growth cone collapse (comparator in the words) [2]: even more potent than the urea-extracted protein
- relative potency in growth cone collapse (comparator in the words) ([2]; listed as GST-Nogo-66): two orders of magnitude more potent than Amino-Nogo
- concentration acutely altering growth cone morphology (as low as) ([2]; soluble GST-Nogo purified on glutathione-Sepharose resin): 1 nM
- growth cone morphology (in words) ([2]; soluble form at 100 nM, chick E12 DRG): collapses chick E12 dorsal root ganglion growth cones
- EC50 ([2]; urea-extracted GST-Nogo, chick E12 dorsal root ganglion neurons, read-out: EC50 growth cone collapsing activity): 50 nM

B2: NgR-ecto: secreted fragment of amino acid residues 1-348 of the murine NgR, in HEK293T conditioned medium (protein)
chain: CPGACVCYNEPKVTTSCPQQGLQAVPTGIPASSQRIFLHGNRISHVPAASFQSCRNLTILWLHSNALARIDAAAFTGLTLLEQLDLSDNAQLHVVDPTTFHGLGHLHTLHLDRCGLRELGPGLFRGLAALQYLYLQDNNLQALPDNTFRDLGNLTHLFLHGNRIPSVPEHAFRGLHSLDRLLLHQNHVARVHPHAFRDLGRLMTLYLFANNLSMLPAEVLMPLRSLQYLRLNDNPWVCDCRARPLWAWLQKFRGSSSEVPCNLPQRLADRDLKRLAASDLEGCAVASGPFRPIQTSQLTDEELLSLPKCCQPDAADKASVLE
modifications: left off: small tags and cut ends
notes: secreted fragment of amino acid residues 1-348 of the murine NgR, in HEK293T conditioned medium
- blockade of CNS myelin induced neurite outgrowth inhibition (in words) [1]: blocks the ability of CNS myelin to inhibit axonal outgrowth
- blockade of CNS myelin induced neurite outgrowth inhibition (in words) ([1]; listed as NgR ectodomain protein): blocked
- blockade of CNS myelin induced neurite outgrowth inhibition (in words) ([1]; listed as NgREcto): partially reversed
- blockade of CNS myelin induced neurite outgrowth inhibition (in words) ([1]; listed as mNgR ectodomain protein): blocked

B3: AP-Nogo: fusion protein of His6 tag, placental alkaline phosphatase (AP) and the 66 amino acid active domain of Nogo (protein)
chain: HHHHHHIIPVEEENPDFWNREAAEALGAAKKLQPAQTAAKNLIIFLGDGMGVSTVTAARILKGQKKDKLGPEIPLAMDRFPYVALSKTYNVDKHVPDSGATATAYLCGVKGNFQTIGLSAAARFNQCNTTRGNEVISVMNRAKKAGKSVGVVTTTRVQHASPAGTYAHTVNRNWYSDADVPASARQEGCQDIATQLISNMDIDVILGGGRKYMFRMGTPDPEYPDDYSQGGTRLDGKNLVQEWLAKRQGARYVWNRTELMQASLDPSVTHLMGLFEPGDMKYEIHRDSTLDPSLMEMTEAALRLLSRNPRGFFLFVEGGRIDHGHHESRAYRALTETIMFDDAIERAGQLTSEEDTLSLVTADHSHVFSFGGYPLRGSSIFGLAPGKARDRKAYTVLLYGNGPGYVLKDGARPDVTESESGSPEYRQQSAVPLDEETHAGEDVAVFARGPQAHLVHGVQEQTFIAHVMAFAACLEPYTACDLAPPAGTTDAAHPGRIYKGVIQAIQKSDEGHPFRAYLESEVAISEELVQKYSNSALGHVNCTIKELRRLFLVDDLVDSLK
- relative potency in growth cone collapse (comparator in the words) [2]: slightly more potent than GST-Nogo
- growth cone collapse (in words) ([2]; conditioned medium, AP-fusion protein final concentration 20 nM, E12 chick DRG): potent growth-cone-collapsing agent
